Data taken from the supplement of paper PMC9112550, “Optimization of the antimicrobial peptide Bac7 by deep mutational scanning” (BMC Biology, 2022).

Test system: Escherichia coli TOP10
Experiment: shrunken log2 fold change of peptide-encoding DNA abundance (4.5 h post-induction vs induction); higher = less antimicrobial activity (less host growth inhibition)
Details: time post-induction: 4.5 h; library: site-saturation at positions 5, 18, 19, 20
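Note: peptides expressed intracellularly from a pBAD plasmid library in pooled LB shake-flask culture, induced with 0.3% L-arabinose, DNA abundance read by NGS, three biological replicates, DESeq2 with apeglm shrinkage.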

| Sequence | shrunken log2 fold change |
| --- | --- |
| RRIRKRPPRLPRPRPRPEISPRP | -0.0587 |
| RRIRKRPPRLPRPRPRPFGPPRP | 0.325 |
| RRIRCRPPRLPRPRPRPLQKPRP | -0.0859 |
| RRIRARPPRLPRPRPRPYGYPRP | -0.294 |
| RRIRRRPPRLPRPRPRPRLPPRP | 0.663 |
| RRIRVRPPRLPRPRPRPEGYPRP | -0.0123 |
| RRIRHRPPRLPRPRPRPPYWPRP | 1.65 |
| RRIRQRPPRLPRPRPRPFHQPRP | -0.00804 |
| RRIRTRPPRLPRPRPRPFFSPRP | -0.135 |
| RRIRVRPPRLPRPRPRPSKEPRP | -0.263 |
| RRIRARPPRLPRPRPRPKWDPRP | 0.373 |
| RRIRPRPPRLPRPRPRPGHHPRP | 0.0565 |
| RRIRARPPRLPRPRPRPDLVPRP | 0.249 |
| RRIRRRPPRLPRPRPRPWQLPRP | 0.144 |
| RRIRTRPPRLPRPRPRPTMHPRP | 0.0843 |
| RRIRLRPPRLPRPRPRPMRKPRP | 0.651 |
| RRIRMRPPRLPRPRPRPLCCPRP | 0.104 |
| RRIRYRPPRLPRPRPRPAMFPRP | -0.229 |
| RRIRVRPPRLPRPRPRPTKAPRP | -0.142 |
| RRIRNRPPRLPRPRPRPRVRPRP | 0.212 |
| RRIRWRPPRLPRPRPRPFKDPRP | -0.252 |
| RRIRLRPPRLPRPRPRPEHYPRP | -0.00385 |
| RRIRMRPPRLPRPRPRPMMAPRP | 1.8 |
| RRIRSRPPRLPRPRPRPPMGPRP | -0.0142 |
| RRIRWRPPRLPRPRPRPSMVPRP | -0.129 |

| Sequence | shrunken log2 fold change |
| --- | --- |
| RRIRCRPPRLPRPRPRPRRAPRP | 0.64 |
| RRIRLRPPRLPRPRPRPVRFPRP | 1.26 |
| RRIRYRPPRLPRPRPRPHFNPRP | -1.23 |
| RRIRPRPPRLPRPRPRPRHVPRP | 0.0494 |
| RRIRARPPRLPRPRPRPPKQPRP | 0.0504 |
| RRIRKRPPRLPRPRPRPDVCPRP | -0.0122 |
| RRIRYRPPRLPRPRPRPNMNPRP | -0.882 |
| RRIRRRPPRLPRPRPRPKHAPRP | 0.407 |
| RRIRHRPPRLPRPRPRPIEYPRP | -0.129 |
| RRIRVRPPRLPRPRPRPCWIPRP | -0.0862 |
| RRIRNRPPRLPRPRPRPQWNPRP | -0.319 |
| RRIRERPPRLPRPRPRPKYAPRP | 0.0159 |
| RRIRPRPPRLPRPRPRPTWMPRP | -0.0166 |
| RRIRYRPPRLPRPRPRPLGCPRP | -0.198 |
| RRIRGRPPRLPRPRPRPPSSPRP | 0.703 |
| RRIRWRPPRLPRPRPRPTIGPRP | 0.217 |
| RRIRRRPPRLPRPRPRPGCVPRP | 0.329 |
| RRIRWRPPRLPRPRPRPKKKPRP | -0.139 |
| RRIRARPPRLPRPRPRPPTDPRP | 0.839 |
| RRIRVRPPRLPRPRPRPSTDPRP | -0.0464 |
| RRIRMRPPRLPRPRPRPRTEPRP | 0.718 |
| RRIRDRPPRLPRPRPRPWDRPRP | -0.193 |
| RRIRPRPPRLPRPRPRPVHYPRP | -0.121 |
| RRIRKRPPRLPRPRPRPHNPPRP | -0.0541 |
| RRIRIRPPRLPRPRPRPGSIPRP | -0.471 |

| Sequence | shrunken log2 fold change |
| --- | --- |
| RRIRYRPPRLPRPRPRPAYVPRP | -0.296 |
| RRIRARPPRLPRPRPRPEQRPRP | 0.2 |
| RRIRNRPPRLPRPRPRPQDDPRP | 0.00776 |
| RRIRPRPPRLPRPRPRPVENPRP | 0.243 |
| RRIRTRPPRLPRPRPRPHSRPRP | 0.0646 |
| RRIRYRPPRLPRPRPRPHDRPRP | 0.0039 |
| RRIRERPPRLPRPRPRPELKPRP | 0.138 |
| RRIRKRPPRLPRPRPRPEVQPRP | 3.94 |
| RRIRFRPPRLPRPRPRPMFWPRP | -0.0645 |
| RRIRLRPPRLPRPRPRPFWQPRP | -0.0702 |
| RRIRMRPPRLPRPRPRPWGRPRP | 0.389 |
| RRIRARPPRLPRPRPRPLSGPRP | 0.334 |
| RRIRGRPPRLPRPRPRPHLHPRP | 0.227 |
| RRIRWRPPRLPRPRPRPDEWPRP | 0.253 |
| RRIRSRPPRLPRPRPRPELFPRP | 0.104 |
| RRIRGRPPRLPRPRPRPNVIPRP | 0.211 |
| RRIRLRPPRLPRPRPRPEQYPRP | -0.122 |
| RRIRSRPPRLPRPRPRPDDIPRP | -0.00173 |
| RRIRDRPPRLPRPRPRPIQSPRP | -0.0949 |
| RRIRCRPPRLPRPRPRPINYPRP | -0.271 |
| RRIRQRPPRLPRPRPRPPYMPRP | -0.184 |
| RRIRIRPPRLPRPRPRPLAGPRP | 0.00712 |
| RRIRWRPPRLPRPRPRPWGDPRP | 0.0345 |
| RRIRERPPRLPRPRPRPAAKPRP | 0.0307 |
| RRIRHRPPRLPRPRPRPRTCPRP | -0.0538 |

| Sequence | shrunken log2 fold change |
| --- | --- |
| RRIRIRPPRLPRPRPRPCADPRP | -0.289 |
| RRIRERPPRLPRPRPRPGNVPRP | -0.197 |
| RRIRDRPPRLPRPRPRPLWVPRP | -0.0158 |
| RRIRGRPPRLPRPRPRPTALPRP | 1.12 |
| RRIRVRPPRLPRPRPRPPYPPRP | 0.0226 |
| RRIRLRPPRLPRPRPRPGFNPRP | -0.0341 |
| RRIRRRPPRLPRPRPRPFQEPRP | -0.264 |
| RRIRCRPPRLPRPRPRPKMCPRP | -0.164 |
| RRIRGRPPRLPRPRPRPVGEPRP | 1.23 |
| RRIRCRPPRLPRPRPRPSYSPRP | -1.04 |
| RRIRQRPPRLPRPRPRPHTPPRP | -0.147 |
| RRIRSRPPRLPRPRPRPARCPRP | 0.114 |
| RRIRFRPPRLPRPRPRPVDHPRP | -0.179 |
| RRIRLRPPRLPRPRPRPRNCPRP | -0.51 |
| RRIRIRPPRLPRPRPRPCDGPRP | -0.00133 |
| RRIRQRPPRLPRPRPRPGMWPRP | 0.191 |
| RRIRMRPPRLPRPRPRPLYWPRP | 0.0465 |
| RRIRARPPRLPRPRPRPHQWPRP | 0.137 |
| RRIRVRPPRLPRPRPRPDEFPRP | -0.0422 |
| RRIRHRPPRLPRPRPRPQPSPRP | 0.111 |
| RRIRMRPPRLPRPRPRPYPKPRP | 0.0427 |
| RRIRPRPPRLPRPRPRPGKCPRP | -0.125 |
| RRIRMRPPRLPRPRPRPTAIPRP | 0.072 |
| RRIRCRPPRLPRPRPRPPSVPRP | 0.292 |
| RRIRWRPPRLPRPRPRPWWDPRP | 0.0125 |

| Sequence | shrunken log2 fold change |
| --- | --- |
| RRIRGRPPRLPRPRPRPCKYPRP | -0.533 |
| RRIRWRPPRLPRPRPRPQNDPRP | -0.0722 |
| RRIRVRPPRLPRPRPRPRYLPRP | -0.184 |
| RRIRLRPPRLPRPRPRPISTPRP | -0.161 |
| RRIRQRPPRLPRPRPRPFRIPRP | -0.0135 |
| RRIRGRPPRLPRPRPRPYNKPRP | -0.593 |
| RRIRLRPPRLPRPRPRPAHWPRP | 0.608 |
| RRIRNRPPRLPRPRPRPEHYPRP | -0.38 |
| RRIRGRPPRLPRPRPRPYAIPRP | -0.0622 |
| RRIRPRPPRLPRPRPRPYYVPRP | -1.25 |
| RRIRNRPPRLPRPRPRPTRYPRP | 0.217 |
| RRIRTRPPRLPRPRPRPPIDPRP | -0.231 |
| RRIRWRPPRLPRPRPRPGKHPRP | 0.0375 |
| RRIRSRPPRLPRPRPRPDAPPRP | 0.49 |
| RRIRQRPPRLPRPRPRPHISPRP | -0.312 |
| RRIRWRPPRLPRPRPRPRSWPRP | 1.07 |
| RRIRCRPPRLPRPRPRPMFVPRP | -0.261 |
| RRIRDRPPRLPRPRPRPEAYPRP | -0.0102 |
| RRIRLRPPRLPRPRPRPSWLPRP | -0.532 |
| RRIRVRPPRLPRPRPRPRSIPRP | 3.22 |
| RRIRERPPRLPRPRPRPVALPRP | -0.377 |
| RRIRMRPPRLPRPRPRPLAFPRP | 0.52 |
| RRIRSRPPRLPRPRPRPMHNPRP | -0.179 |
| RRIRSRPPRLPRPRPRPMCLPRP | 0.038 |
| RRIRKRPPRLPRPRPRPLLHPRP | 0.108 |

| Sequence | shrunken log2 fold change |
| --- | --- |
| RRIRKRPPRLPRPRPRPFSYPRP | -0.324 |
| RRIRKRPPRLPRPRPRPYNKPRP | -0.626 |
| RRIRRRPPRLPRPRPRPDCVPRP | -0.0143 |
| RRIRRRPPRLPRPRPRPRAHPRP | 0.592 |
| RRIRVRPPRLPRPRPRPIPGPRP | -0.0572 |
| RRIRVRPPRLPRPRPRPNATPRP | 0.172 |
| RRIRVRPPRLPRPRPRPVTRPRP | 0.0259 |
| RRIRYRPPRLPRPRPRPFANPRP | -0.245 |
| RRIRCRPPRLPRPRPRPIIHPRP | -0.799 |
| RRIRQRPPRLPRPRPRPDQEPRP | 0.0119 |
| RRIRYRPPRLPRPRPRPHQHPRP | 0.0599 |
| RRIRNRPPRLPRPRPRPEWMPRP | 0.066 |
| RRIRYRPPRLPRPRPRPGMCPRP | 0.0154 |
| RRIRYRPPRLPRPRPRPSTCPRP | -0.687 |
| RRIRKRPPRLPRPRPRPFHFPRP | -0.0346 |
| RRIRDRPPRLPRPRPRPEGHPRP | -0.0429 |
| RRIRERPPRLPRPRPRPVYKPRP | -0.348 |
| RRIRLRPPRLPRPRPRPAMWPRP | 0.373 |
| RRIRYRPPRLPRPRPRPNWIPRP | -0.312 |
| RRIRRRPPRLPRPRPRPNVTPRP | 0.0871 |
| RRIRGRPPRLPRPRPRPGNSPRP | 0.131 |
| RRIRWRPPRLPRPRPRPMGQPRP | 0.0149 |
| RRIRRRPPRLPRPRPRPRNIPRP | -0.0349 |
| RRIRGRPPRLPRPRPRPDAMPRP | 2.4 |
| RRIRTRPPRLPRPRPRPIDLPRP | -1.07 |
